Reference: US20250263489A1 (TEIJIN PHARMA, published 2025)
Like-named read-outs stand apart in the source and are kept apart here.

How the values were obtained:
[1] = molecular target: T1, IGF-1 receptor on the cells of the PathHunter IGF1R Functional Assay (DiscoverX) (UniProt P08069 31-1367); assay: cell-based or functional assay
[2] = molecular target: T1, IGF-1 receptor on the cells of the …; assay: cell-based or functional assay; remark: listed apart in the source
[3] = molecular target: T1, IGF-1 receptor on the cells of the …; assay: cell-based or functional assay; remark: listed apart in the source
[4] = molecular target: T1, IGF-1 receptor on the cells of the …; assay: cell-based or functional assay; remark: listed apart in the source
[5] = molecular target: rat IGF-1 receptor expressed on HEK293T cells (rat, UniProt P24062 31-1370); assay: cell-based ELISA on fixed HEK293T cells expressing the receptor, compared with Mock cells
Description: (§1) HEK293T cells were transfected by lipofection method with pEF1 expression vectors (Thermo Fisher) incorporated with the IGF-1 receptor genes of rabbit (SEQ ID NO: 76), guinea pig (SEQ ID NO: 78), rat (SEQ ID NO: 80) and mouse SEQ ID NO: 82). The transfected HEK293T cells were allowed to grow overnight or longer after the lipofection, and were then added to a 96-well plate (poly-D-lysine coated) at 4×10⁴ cells/well. The cells were then fixed in 10% buffered formalin (Mildform® 10NM, Wako) and blocked with phosphate buffer containing 3% BSA before used for ELISA.
(§2) ELISA was carried out as follows. 100 μL of each humanized antibody solution prepared at 5 nM in 1% BSA/1% FBS/PBS was added to each well, and reacted at 37° C. for about 1 hour. Anti-human IgG antibody HRP conjugate solution prepared at each concentration in 1% BSA/1% FBS/PBS was added to each well at 100 μL, reacted at 37° C. for about 1 hour, and washed three times with washing solution. The reaction was initiated by adding 100 μL of substrate (TMB) to each well. After about 30 minutes, 100 μL of 1M sulfuric acid was added to each well, the absorbances at 450 and 650 nm were measured, and the difference between the absorbances at 450 nm and at 650 nm was calculated. The calculated difference was compared with the difference between the absorbances at 450 nm and at 650 nm for HEK293T cells without IGF-1 receptor gene (Mock) to analyze the binding activity.

[6] = molecular target: mouse IGF-1 receptor expressed on HEK293T cells (mouse, UniProt Q60751 31-1373); assay: as above
Description: as §1, §2

[7] = molecular target: T2, rabbit IGF-1 receptor expressed on HEK293T cells (rabbit); assay: cell-based ELISA on fixed HEK293T cells expressing the receptor, antibody at 5 nM
[8] = molecular target: T3, human IGF-1 receptor expressed on HEK293T cells (human, UniProt P08069 31-1367); assay: as above
T3 construct: Cells fixed in formalin before the ELISA; also called human IGF-1 receptor-expressing cells

[9] = molecular target: crab-eating macaque IGF-1 receptor expressed on HEK293T cells (crab-eating macaque); assay: as above
[10] = molecular target: T4, guinea pig IGF-1 receptor expressed on HEK293T cells (guinea pig, UniProt P08069 31-1367 (human entry)); assay: as above
[11] = molecular target: T2, rabbit IGF-1 receptor expressed on …; assay: cell-based ELISA on fixed HEK293T cells expressing the IGF-1R, antibody at 5 nM, anti-human IgG HRP, absorbance 450 nm minus 650 nm
Description: as §1
as §2, with “The reaction was initiated by adding 100 μL of substrate (TMB) to each well.” left out

[12] = molecular target: T4, guinea pig IGF-1 receptor expressed on …; assay: as above
Description: as §1
as §2, with “The reaction was initiated by adding 100 μL of substrate (TMB) to each well.” left out

[13] = molecular target: T1, IGF-1 receptor on the cells of the …; assay: cell-based or functional assay; remark: listed apart in the source

T4 sequence (P08069 other isoform, or with tags, fused parts or gaps limits assumed): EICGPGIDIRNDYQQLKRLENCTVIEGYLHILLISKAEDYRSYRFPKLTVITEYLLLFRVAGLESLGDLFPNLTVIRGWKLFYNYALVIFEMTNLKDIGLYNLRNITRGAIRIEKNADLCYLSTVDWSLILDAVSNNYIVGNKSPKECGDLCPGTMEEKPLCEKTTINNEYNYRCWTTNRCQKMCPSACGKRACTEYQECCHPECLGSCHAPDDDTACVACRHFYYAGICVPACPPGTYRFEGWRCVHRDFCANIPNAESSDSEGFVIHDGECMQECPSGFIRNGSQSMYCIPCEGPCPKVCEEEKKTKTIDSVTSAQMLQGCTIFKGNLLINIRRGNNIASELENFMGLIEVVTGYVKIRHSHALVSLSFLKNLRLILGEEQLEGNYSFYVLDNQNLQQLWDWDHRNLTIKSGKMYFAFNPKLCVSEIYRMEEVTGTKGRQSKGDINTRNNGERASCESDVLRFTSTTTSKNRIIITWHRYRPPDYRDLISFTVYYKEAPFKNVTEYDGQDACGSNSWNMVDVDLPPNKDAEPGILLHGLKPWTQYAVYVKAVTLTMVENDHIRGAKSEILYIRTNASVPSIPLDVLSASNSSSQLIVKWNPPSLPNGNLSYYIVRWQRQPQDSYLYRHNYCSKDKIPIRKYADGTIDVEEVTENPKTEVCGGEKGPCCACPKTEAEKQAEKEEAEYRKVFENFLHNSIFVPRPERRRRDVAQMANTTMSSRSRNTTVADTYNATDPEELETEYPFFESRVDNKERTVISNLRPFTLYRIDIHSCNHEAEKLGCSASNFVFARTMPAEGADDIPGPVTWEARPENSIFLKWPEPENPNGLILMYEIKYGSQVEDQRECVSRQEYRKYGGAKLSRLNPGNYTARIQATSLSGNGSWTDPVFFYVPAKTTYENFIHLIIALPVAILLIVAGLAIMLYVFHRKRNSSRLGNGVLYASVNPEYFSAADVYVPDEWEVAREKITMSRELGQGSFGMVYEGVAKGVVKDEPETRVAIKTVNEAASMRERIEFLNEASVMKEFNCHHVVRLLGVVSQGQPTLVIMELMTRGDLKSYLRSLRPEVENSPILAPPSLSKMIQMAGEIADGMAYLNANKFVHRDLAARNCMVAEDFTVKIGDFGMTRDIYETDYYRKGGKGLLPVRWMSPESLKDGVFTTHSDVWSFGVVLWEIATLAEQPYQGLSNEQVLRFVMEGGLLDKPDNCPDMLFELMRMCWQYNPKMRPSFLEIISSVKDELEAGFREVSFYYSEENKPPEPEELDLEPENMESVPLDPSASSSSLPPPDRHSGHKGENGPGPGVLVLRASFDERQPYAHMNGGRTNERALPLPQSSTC
T2 sequence (chain, as listed by the source limits assumed): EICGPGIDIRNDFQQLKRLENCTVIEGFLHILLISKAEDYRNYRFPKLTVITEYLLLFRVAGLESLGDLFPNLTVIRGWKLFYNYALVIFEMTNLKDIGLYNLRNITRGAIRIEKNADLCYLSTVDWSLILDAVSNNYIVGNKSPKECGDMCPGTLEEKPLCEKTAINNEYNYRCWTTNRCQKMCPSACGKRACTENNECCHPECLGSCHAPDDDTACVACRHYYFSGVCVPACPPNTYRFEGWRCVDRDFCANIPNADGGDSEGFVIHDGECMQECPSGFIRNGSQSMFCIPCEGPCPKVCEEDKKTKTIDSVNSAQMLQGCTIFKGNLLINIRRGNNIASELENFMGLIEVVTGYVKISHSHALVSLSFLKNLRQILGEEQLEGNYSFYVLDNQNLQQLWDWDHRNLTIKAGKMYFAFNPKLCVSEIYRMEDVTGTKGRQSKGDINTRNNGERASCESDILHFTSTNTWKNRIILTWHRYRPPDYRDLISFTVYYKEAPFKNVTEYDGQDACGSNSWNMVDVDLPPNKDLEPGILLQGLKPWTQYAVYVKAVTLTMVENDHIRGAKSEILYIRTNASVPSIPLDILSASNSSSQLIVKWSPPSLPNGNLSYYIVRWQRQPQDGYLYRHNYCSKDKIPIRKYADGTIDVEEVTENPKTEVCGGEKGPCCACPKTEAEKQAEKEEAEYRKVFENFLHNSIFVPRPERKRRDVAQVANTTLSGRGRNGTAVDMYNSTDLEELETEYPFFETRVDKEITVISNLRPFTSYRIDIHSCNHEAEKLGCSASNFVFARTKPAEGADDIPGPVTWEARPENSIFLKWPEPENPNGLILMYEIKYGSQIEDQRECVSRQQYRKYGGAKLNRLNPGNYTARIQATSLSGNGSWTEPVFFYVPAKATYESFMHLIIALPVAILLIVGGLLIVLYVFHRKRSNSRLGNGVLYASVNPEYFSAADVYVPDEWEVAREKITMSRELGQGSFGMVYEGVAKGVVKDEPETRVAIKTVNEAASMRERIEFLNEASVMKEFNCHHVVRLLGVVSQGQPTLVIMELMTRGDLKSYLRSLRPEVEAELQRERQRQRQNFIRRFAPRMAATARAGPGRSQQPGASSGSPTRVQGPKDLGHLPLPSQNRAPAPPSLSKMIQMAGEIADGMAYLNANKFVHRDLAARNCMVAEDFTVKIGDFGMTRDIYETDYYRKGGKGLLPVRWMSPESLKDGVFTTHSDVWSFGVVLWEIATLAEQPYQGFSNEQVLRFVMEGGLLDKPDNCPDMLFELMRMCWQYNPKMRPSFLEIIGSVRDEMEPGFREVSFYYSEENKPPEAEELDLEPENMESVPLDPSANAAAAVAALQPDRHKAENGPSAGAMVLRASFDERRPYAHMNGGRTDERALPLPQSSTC
T1 sequence (P08069 31-1367): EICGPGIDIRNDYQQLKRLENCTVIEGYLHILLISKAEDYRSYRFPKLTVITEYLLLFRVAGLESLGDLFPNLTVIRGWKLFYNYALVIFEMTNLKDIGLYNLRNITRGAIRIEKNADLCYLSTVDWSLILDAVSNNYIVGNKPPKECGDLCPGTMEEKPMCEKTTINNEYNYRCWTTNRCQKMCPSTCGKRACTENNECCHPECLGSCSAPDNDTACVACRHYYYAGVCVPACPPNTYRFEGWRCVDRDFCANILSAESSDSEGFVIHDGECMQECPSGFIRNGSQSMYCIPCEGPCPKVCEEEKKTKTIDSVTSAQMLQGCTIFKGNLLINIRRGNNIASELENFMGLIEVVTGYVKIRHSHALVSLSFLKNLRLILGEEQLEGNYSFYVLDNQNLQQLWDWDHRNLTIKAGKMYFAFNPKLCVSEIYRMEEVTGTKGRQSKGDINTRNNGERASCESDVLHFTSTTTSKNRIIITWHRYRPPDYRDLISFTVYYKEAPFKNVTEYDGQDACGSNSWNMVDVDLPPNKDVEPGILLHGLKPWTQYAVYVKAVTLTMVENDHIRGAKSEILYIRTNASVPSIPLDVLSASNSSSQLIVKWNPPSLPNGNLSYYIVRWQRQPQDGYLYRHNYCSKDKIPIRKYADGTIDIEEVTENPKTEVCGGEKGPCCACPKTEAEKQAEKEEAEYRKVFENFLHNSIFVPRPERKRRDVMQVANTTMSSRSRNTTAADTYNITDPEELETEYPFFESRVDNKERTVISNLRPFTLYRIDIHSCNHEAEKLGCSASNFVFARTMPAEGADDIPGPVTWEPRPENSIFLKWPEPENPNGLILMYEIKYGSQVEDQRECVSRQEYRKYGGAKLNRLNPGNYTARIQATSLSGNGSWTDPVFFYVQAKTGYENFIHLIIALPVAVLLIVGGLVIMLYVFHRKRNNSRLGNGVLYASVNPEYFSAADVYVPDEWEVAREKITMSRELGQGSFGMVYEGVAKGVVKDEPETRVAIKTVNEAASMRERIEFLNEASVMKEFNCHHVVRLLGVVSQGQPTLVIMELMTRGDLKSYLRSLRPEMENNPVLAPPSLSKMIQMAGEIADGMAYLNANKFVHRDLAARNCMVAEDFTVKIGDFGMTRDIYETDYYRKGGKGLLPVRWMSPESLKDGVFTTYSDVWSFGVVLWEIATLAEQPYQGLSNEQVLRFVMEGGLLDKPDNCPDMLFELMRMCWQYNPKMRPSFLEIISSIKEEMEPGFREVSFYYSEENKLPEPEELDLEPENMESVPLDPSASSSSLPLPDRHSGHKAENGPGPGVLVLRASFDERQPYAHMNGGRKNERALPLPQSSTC
crab-eating macaque IGF-1 receptor expressed on HEK293T cells (crab-eating macaque), sequence (chain, as listed by the source limits assumed): as the sequence (P08069 31-1367) above, with T188A, S471W, A729V, P738L, E1238D counted along it
T3 sequence (P08069 31-1367 limits assumed): as the sequence (P08069 31-1367) above

B1: FW1_var1 antibody (antibody, V domains shown)
VH: QVQLVQSGAEVKKPGASVKVSCKASGYTFTSYWMHWVRQAPGQGLEWMGETNPSNSVTNYAQKFQGRVTLTVDTSTSTAYMELSSLRSEDTAVYYCTIGRGRGFAYWGQGTLVTVSS
VL: DIQMTQSPSSVSASVGDRVTITCRASQNINFWLSWCQQKPGKIPKLLIYKASNLHTGVPSRFSGSGSGTDFTLTISSLQPEDFATYYCLQGQSYPYTFGGGTKLEIK
Signal intensity ratio (compared to IGF11-16) at 16.7 nM, PathHunter [1]: 0.66 ratio to IGF11-16 | Activation intensity (RLU), PathHunter [2]: 2270 RLU | Fluorescence intensity (0.1 nM) (RLU), PathHunter [2]: 209 RLU | Fluorescence intensity (12.5 nM) (RLU), PathHunter [2]: 2480 RLU | Ratio of activation intensity, PathHunter [2]: 0.64 relative to IGF11-16 | Activation intensity (RLU), PathHunter [3]: 1600 RLU | Fluorescence intensity (0.1 nM) (RLU), PathHunter [3]: 555 RLU | Fluorescence intensity (12.5 nM) (RLU), PathHunter [3]: 2160 RLU | Ratio of activation intensity, PathHunter [3]: 0.74 relative to IGF11-16

B2: FW1-var9-mFR-H3 (antibody, V domains shown)
VH: QVQLVQSGAEVKKPGASVKVSCKASGYTFTSYWMHWVRQAPGQGLEWMGETNPSNSVTNYAQKFQGRVTLTVDKSSSTAYMQLSSLTSEDSAVYYCTIGRGRGFAYWGQGTLVTVSA
VL: DIQMTQSPSSVSASVGDRVTITCRASQNINFWLSWYQQKPGKAPKLLIYKASNLHTGVPSRFSGSGSGTDFTLTISSLQPEDFATYYCLQGQSYPYTFGGGTKLEIK
Signal intensity (ratio to IGF11-16) at 16.7 nM, PathHunter [4]: 0.7 ratio to human chimeric IGF11-16

B3: FW1-var9-mFR-H2 (antibody, V domains shown)
VH: QVQLVQSGAEVKKPGASVKVSCKASGYTFTSYWMHWVKQRPGQGLEWIGETNPSNSVTNYAQKFQGRVTLTVDTSTSTAYMELSSLRSEDTAVYYCTIGRGRGFAYWGQGTLVTVSS
VL: DIQMTQSPSSVSASVGDRVTITCRASQNINFWLSWYQQKPGKAPKLLIYKASNLHTGVPSRFSGSGSGTDFTLTISSLQPEDFATYYCLQGQSYPYTFGGGTKLEIK
Signal intensity (ratio to IGF11-16) at 16.7 nM, PathHunter [4]: 0.51 ratio to human chimeric IGF11-16

B4: FW1-var9-mFR-H1 (antibody, V domains shown)
VH: QIQLQQPGAELVKPGASVKLSCKAPGYTFTSYWMHWVRQAPGQGLEWMGETNPSNSVTNYAQKFQGRVTLTVDTSTSTAYMELSSLRSEDTAVYYCTIGRGRGFAYWGQGTLVTVSS
VL: DIQMTQSPSSVSASVGDRVTITCRASQNINFWLSWYQQKPGKAPKLLIYKASNLHTGVPSRFSGSGSGTDFTLTISSLQPEDFATYYCLQGQSYPYTFGGGTKLEIK
Signal intensity (ratio to IGF11-16) at 16.7 nM, PathHunter [4]: 1.08 ratio to human chimeric IGF11-16

B5: FW1-var9-mFR-L1 (antibody, V domains shown)
VH: QVQLVQSGAEVKKPGASVKVSCKASGYTFTSYWMHWVRQAPGQGLEWMGETNPSNSVTNYAQKFQGRVTLTVDTSTSTAYMELSSLRSEDTAVYYCTIGRGRGFAYWGQGTLVTVSS
VL: DIQMNQSPSSLSASLGDTITITCRASQNINFWLSWYQQKPGKAPKLLIYKASNLHTGVPSRFSGSGSGTDFTLTISSLQPEDFATYYCLQGQSYPYTFGGGTKLEIK
Signal intensity (ratio to IGF11-16) at 16.7 nM, PathHunter [4]: 0.51 ratio to human chimeric IGF11-16

B6: humanized antibody hIGF13_PS (antibody, V domains shown)
VH: QVQLVQSGAEVKKPGASVKVSCKAPGYTFTSYWMHWVRQAPGQGLEWMGETNPSSSVTNYAQKFQGRVTLTVDTSTSTAYMELSSLRSEDTATYYCTIGRGRGFAYWGQGTLVTVSS
VL: DIQMTQSPSSLSASVGDRVTITCRASQNINFWLSWYQQKPGKVPKLLIYKASNLHTGVPSRFSGSGSGTDFTLTISSLQPEDVATYYCLQGQSYPYTFGGGTKLEIK
notes: also called VL23/VH13_PS
binding result [5]: no binding (tested: 5 nM) | binding result [6]: no binding (tested: 5 nM) | binding activity, fold compared to Mock cells [7]: ~2 fold | binding activity, fold compared to Mock cells [8]: ~2 fold | binding activity, fold compared to Mock cells [9]: ~2 fold | binding activity, fold compared to Mock cells [10]: ~2 fold

B7: FW1-var9-mFR-L2 + L3 (antibody, V domains shown)
VH: QVQLVQSGAEVKKPGASVKVSCKASGYTFTSYWMHWVRQAPGQGLEWMGETNPSNSVTNYAQKFQGRVTLTVDTSTSTAYMELSSLRSEDTAVYYCTIGRGRGFAYWGQGTLVTVSS
VL: DIQMTQSPSSVSASVGDRVTITCRASQNINFWLSWYQQKPGNIPKLLIYKASNLHTGVPSRFSGSGSGTDFTLTISSLQPEDIATYYCLQGQSYPYTFGGGTKLEIK
Signal intensity (ratio to IGF11-16) at 16.7 nM, PathHunter [4]: 0.5 ratio to human chimeric IGF11-16

B8: humanized antibody hIGF25_PS (antibody, V domains shown)
VH: QVQLVQSGAEVKKPGASVKVSCKAPGYTFTSYWMHWVRQAPGQGLEWMGETNPSSSVTNYAQKFQGRVTLTVDTSTSTAYMELSSLRSEDTAVYYCTIGRGRGFAYWGQGTLVTVSS
VL: DIQMTQSPSSLSASVGDRVTITCRASQNINFWLSWYQQKPGKVPKLLIYKASNLHTGVPSRFSGSGSGTDFTLTISSLQPEDVATYYCLQGQSYPYTFGGGTKLEIK
notes: also called VL23/VH25_PS
binding result [5]: no binding (tested: 5 nM) | binding result [6]: no binding (tested: 5 nM) | binding activity, fold compared to Mock cells [7]: ~2 fold | binding activity, fold compared to Mock cells [8]: ~2 fold | binding activity, fold compared to Mock cells [9]: ~2 fold | binding activity, fold compared to Mock cells [10]: ~2 fold

B9: mouse parent antibody IGF11-16 (antibody, mouse IgG1, kappa, V domains shown)
VH: QIQLQQPGAELVKPGASVKLSCKAPGYTFTSYWMHWVKQRPGQGLEWIGETNPSNSVTNYNEKFKSKATLTVDKSSSTAYMQLSSLTSEDSAVYYCTIGRGRGFAYWGQGTLVTVSA
VL: DIQMNQSPSSLSASLGDTITITCRASQNINFWLSWCQQKPGNIPKLLIYKASNLHTGVPSRFSGSGSGTDFTLTISSLQPEDIATYYCLQGQSYPYTFGGGTKLEIKR
Signal intensity ratio (compared to IGF11-16) at 16.7 nM, PathHunter [1]: 1 ratio to IGF11-16 | Activation intensity (RLU), PathHunter [2]: 3570 RLU | Fluorescence intensity (0.1 nM) (RLU), PathHunter [2]: 230 RLU | Fluorescence intensity (12.5 nM) (RLU), PathHunter [2]: 3800 RLU | Ratio of activation intensity, PathHunter [2]: 1 relative to IGF11-16 | Activation intensity (RLU), PathHunter [3]: 2180 RLU | Fluorescence intensity (0.1 nM) (RLU), PathHunter [3]: 557 RLU | Fluorescence intensity (12.5 nM) (RLU), PathHunter [3]: 2730 RLU | Ratio of activation intensity, PathHunter [3]: 1 relative to IGF11-16

B10: human chimeric IGF11-16 antibody (antibody, V domains shown)
VH: QIQLQQPGAELVKPGASVKLSCKAPGYTFTSYWMHWVKQRPGQGLEWIGETNPSNSVTNYNEKFKSKATLTVDKSSSTAYMQLSSLTSEDSAVYYCTIGRGRGFAYWGQGTLVTVSA
VL: DIQMNQSPSSLSASLGDTITITCRASQNINFWLSWCQQKPGNIPKLLIYKASNLHTGVPSRFSGSGSGTDFTLTISSLQPEDIATYYCLQGQSYPYTFGGGTKLEIK
notes: also called Chimera; human mouse chimeric antibody IGF11-16
Signal intensity (ratio to IGF11-16) at 16.7 nM, PathHunter [4]: 1 ratio to human chimeric IGF11-16 | binding result [11]: binds | binding result [12]: binds

B11: IGF11-16 with alanine substitution of W at position 32 (CDR-L1) (antibody, V domains shown)
VH: QIQLQQPGAELVKPGASVKLSCKAPGYTFTSYWMHWVKQRPGQGLEWIGETNPSNSVTNYNEKFKSKATLTVDKSSSTAYMQLSSLTSEDSAVYYCTIGRGRGFAYWGQGTLVTVSA
VL: DIQMNQSPSSLSASLGDTITITCRASQNINFALSWCQQKPGNIPKLLIYKASNLHTGVPSRFSGSGSGTDFTLTISSLQPEDIATYYCLQGQSYPYTFGGGTKLEIK
Signal activation EC50 vs IGF11-16, PathHunter [13]: 9.5 ratio vs IGF11-16 | Signal activation Emax vs IGF11-16, PathHunter [13]: 1.5 ratio vs IGF11-16
